Experimental data as given in patent US20250115669A1, “FGFR1/KLB Targeting Agonistic Antigen-Binding Proteins and Conjugates Thereof with GLP-1R Agonistic Peptides” (SANOFI, priority 2020, published 2025).
Marks after values point to notes of the source that are not given here.

Experiments:
[1] = molecular target: cynomolgus monkey beta-Klotho; experiment: SPR binding affinity and kinetics to cynomolgus monkey beta-Klotho (Biacore 8K, anti-human Fc capture); parameters: species or system Cynomolgus monkey (Macaca fascicularis); conditions: 1:1 binding model, read-out: KD monkey KLB
Description: Binding affinity and kinetics were measured on a Biacore 8K instrument (GE Healthcare). For the affinity capture of the diluted mAb sample, an anti-human Fc antibody (human antibody capture kit, GE Healthcare) was immobilized on all eight channels of a series S CM5 sensor chip (GE Healthcare) to approximately 10.000 RU. The anti-beta-Klotho antibodies were diluted into HBS-EP+ assay buffer (GE Healthcare) to 0.04 μg/mL. The antibodies were injected in the sample compartment, whereas the reference compartment was used without captured antibody. […] For the antigen inject the flow rate was adjusted to 60 μL/min with an association time of 180 sec and a dissociation time of 1800 sec. The maximum binding signal of beta-Klotho was in the range of 30 RU. At the end of each cycle an inject of regeneration solution, supplied with human antibody capture kit (GE Healthcare), supplemented with 10% non-specific binding reducer (GE Healthcare), for 1 min at 30 μL/min to remove antibody and antigen was performed. Binding kinetics data were evaluated with a 1:1 binding model using the Biacore 8K Evaluation Software version 1.1.1.7442 (GE Healthcare).
For interaction analysis with human beta-klotho, mAbs were captured via an anti-human Fc antibody immobilized on a series S CM5 sensor chip (human antibody capture kit, GE Healthcare). […] Binding kinetics data were evaluated with a 1:1 binding model using the Biacore 8K Evaluation Software version 1.1.1.7442 (GE Healthcare). For interaction analysis with Cynomolgus monkey beta-klotho, mAbs were captured via an anti-human Fc antibody immobilized on a series S CM5 sensor chip (human antibody capture kit, GE Healthcare). […] Binding kinetics data were evaluated with a 1:1 binding model using the Biacore 8K Evaluation Software version 1.1.1.7442 (GE Healthcare). Exemplary sensorgrams for the interaction are shown in FIG. 7 (human KLB) and 8 (monkey KLB), as well as in Table G.

[2] = In vivo PK in transgenic humanized FcRn mice (Tg32); conditions: 0.3 mg/kg single IV, plasma; for t½: noncompartmental analysis
Description: In vivo PK studies were conducted in transgenic humanized FcRn mice (Tg32). For these studies, no GLP compliance was claimed.

[3] = Nano differential scanning fluorimetry (nanoDSF), Tonset and Tm; assay type: physicochemical
Description: Onset temperatures (Tonset) and melting points (Tm) of protein denaturation were determined using nano differential scanning fluorimetry (nanoDSF). Samples were diluted in formulation buffer to a final concentration of 0.5 mg/mL and loaded into nanoDSF capillaries in duplicates (Nanotemper Technologies). All measurements were done using a Prometheus NT.plex nanoDSF device (Nanotemper Technologies). Heating rate was 1° C. per minute from 20° C. to 95° C. Data were recorded using PR.ThermControl Software v2.3.1 (Nanotemper Technologies) and analyzed using PR.Stability Analysis Software v1.0.3 (Nanotemper Technologies).

[4] = Dynamic light scattering (DLS) and diffusion interaction parameter (kD); assay type: physicochemical
Description: Dynamic light scattering (DLS) was performed using a DynaPro Plate Reader (Wyatt Technology). The samples were measured in 384 well assay plates (Corning) at 25° C. Data were evaluated by cumulant fitting using Dynamics Software version 7.7.0.125 (Wyatt Technology).
Colloidal stability of the samples was assessed by measuring the diffusion interaction parameter (kD) at 20° C. using a DynaPro Plate Reader (Wyatt Technology). Before the measurements the samples were buffer exchanged against 5 L of 10 mmol/L Histidine pH 6.0 by dialysis for 20 h with one buffer change using 1 mL Float-A-Lyzer G2 devices with 3.5-5 kDa cut-off (Spectrum Labs). A dilution series from 1 to 4.5 mg/mL, in 0.5 mg/mL increments, was prepared in 10 mmol/L Histidine pH 6.0 and measured in 384 well assay plates (Corning).

[5] = Intact mass spectrometry (IMS); assay type: physicochemical; conditions: for intact mass Identity confirmed / intact mass Peak intensity post stress: 21 days
Description: Protein integrity was analyzed by LC-MS. […] Reversed phase (RP) chromatography was done using a PLRP-S 1000A 5 μm, 50×2.1 mm (Agilent) with a guard column PLRP-S 300A 5 μm, 3×5 mm (Agilent) at 200 μL/min and 80° C. column temperature. Eluents were buffer A containing LC water and 0.1% formic acid as well as buffer B containing 90% acetonitrile, 10% LC water and 0.1% formic acid. 1 μg of protein was injected onto the column and eluted using linear gradient from 0 to 17 minutes with increasing acetonitrile concentration. Data was analyzed using MassHunter Bioconfirm B.06 (Agilent). Molecular masses were calculated based on the amino acid sequences of the proteins using GPMAW software version 10 (Lighthouse data).

| Substance | Kd [1] [nM] | t½ [2] [days] | Thermal stability DSF Tm [3] [°C] | Thermal stability DSF Tonset [3] [°C] | DSF Tm ([3]; pH 5, 40° C., d 21) [°C] | DSF Tonset ([3]; pH 5, 40° C., d 21) [°C] | DSF Tm ([3]; pH 5, d 0) [°C] | DSF Tonset ([3]; pH 5, d 0) [°C] | DSF Tm ([3]; pH 6, 40° C., d 21) [°C] | DSF Tonset ([3]; pH 6, 40° C., d 21) [°C] | DSF Tm ([3]; pH 6, d 0) [°C] | DSF Tonset ([3]; pH 6, d 0) [°C] | DSF Tm ([3]; pH 8, 40° C., d 21) [°C] | DSF Tonset ([3]; pH 8, 40° C., d 21) [°C] | DSF Tm ([3]; pH 8, d 0) [°C] | DSF Tonset ([3]; pH 8, d 0) [°C] | Homogeneity DLS Hydrodynamic radius [4] [nm] | DLS Hydrodynamic radius ([4]; pH 5, 40° C., d 21) [nm] | DLS Hydrodynamic radius ([4]; pH 5, d 0) [nm] | DLS Hydrodynamic radius ([4]; pH 6, 40° C., d 21) [nm] | further results |
| --- | --- | --- | --- | --- | --- | --- | --- | --- | --- | --- | --- | --- | --- | --- | --- | --- | --- | --- | --- | --- | --- |
| Ab0331: IgG4 PE; 16H7 VL (N25S, D49S, D50E, D91E, N93E); 16H7 VH (M34V, I83T, D109E); HC SEQ ID NO: 38, LC SEQ ID NO: 45 | 3.49 | 14.9 | 63 | 53 | 61 | 44 | 61 | 54 | 62 | 50 | 63 | 53 | 67 | 57 | 68 | 58 | 5.3 | 5.3 | 5.5 | 5.2 | DLS Hydrodynamic radius ([4]; pH 6, d 0): 5 nm; DLS Hydrodynamic radius ([4]; pH 8, 40° C., d 21): 5.9 nm; DLS Hydrodynamic radius ([4]; pH 8, d 0): 5.6 nm; Identity, correct pairing, intact mass, Identity confirmed [5]: Yes; intact mass Identity confirmed ([5]; pH 5, 40° C.): Yes; intact mass Peak intensity post stress ([5]; pH 5, 40° C.): 84%; intact mass Identity confirmed ([5]; pH 6, 40° C.): Yes; intact mass Peak intensity post stress ([5]; pH 6, 40° C.): 97%; intact mass Identity confirmed ([5]; pH 8, 40° C.): Yes; intact mass Peak intensity post stress ([5]; pH 8, 40° C.): 75% |
| Ab0335: IgG4 PE; 16H7 VL (N25S, D49S, D50A, D91E, N93E); 16H7 VH (M34V, I83T, D109E); HC SEQ ID NO: 39, LC SEQ ID NO: 46 | 2.95 |  | 63 | 52 | 62 | 45 | 61 | 51 | 62 | 50 | 63 | 52 | 68 | 57 | 68 | 57 | 5.2 | 5.2 | 5.3 | 5.1 | DLS Hydrodynamic radius ([4]; pH 6, d 0): 5.2 nm; DLS Hydrodynamic radius ([4]; pH 8, 40° C., d 21): 6.1 nm; DLS Hydrodynamic radius ([4]; pH 8, d 0): 5.3 nm; Identity, correct pairing, intact mass, Identity confirmed [5]: Yes; intact mass Identity confirmed ([5]; pH 5, 40° C.): Yes; intact mass Peak intensity post stress ([5]; pH 5, 40° C.): 84%; intact mass Identity confirmed ([5]; pH 6, 40° C.): Yes; intact mass Peak intensity post stress ([5]; pH 6, 40° C.): 85%; intact mass Identity confirmed ([5]; pH 8, 40° C.): Yes; intact mass Peak intensity post stress ([5]; pH 8, 40° C.): 53%; t½ calculated with compartment model ([2]; compartment model): 300* h |
| Ab0351: IgG4 PE; 16H7 VL (N25S, D49E, D50E, D91E, N93E); 16H7 VH (M34V, I83T, D109E); HC SEQ ID NO: 40, LC SEQ ID NO: 47 |  | 14.2 | 62 | 53 | 61 | 45 | 61 | 50 | 62 | 52 | 62 | 53 | 66 | 57 | 66 | 58 | 5.3 | 5.6 | 5.4 | 5.2 | DLS Hydrodynamic radius ([4]; pH 6, d 0): 5.2 nm; DLS Hydrodynamic radius ([4]; pH 8, 40° C., d 21): 8.1 nm; DLS Hydrodynamic radius ([4]; pH 8, d 0): 5.6 nm; Identity, correct pairing, intact mass, Identity confirmed [5]: Yes; intact mass Identity confirmed ([5]; pH 5, 40° C.): Yes; intact mass Peak intensity post stress ([5]; pH 5, 40° C.): 90%; intact mass Identity confirmed ([5]; pH 6, 40° C.): Yes; intact mass Peak intensity post stress ([5]; pH 6, 40° C.): 96%; intact mass Identity confirmed ([5]; pH 8, 40° C.): Yes; intact mass Peak intensity post stress ([5]; pH 8, 40° C.): 77% |

More lines, main results first:

| Kd [1] [nM] | Substance | t½ [2] [days] | Thermal stability DSF Tm [3] [°C] | Thermal stability DSF Tonset [3] [°C] | DSF Tm ([3]; pH 5, 40° C., d 21) [°C] | DSF Tonset ([3]; pH 5, 40° C., d 21) [°C] | DSF Tm ([3]; pH 5, d 0) [°C] | DSF Tonset ([3]; pH 5, d 0) [°C] | DSF Tm ([3]; pH 6, 40° C., d 21) [°C] | DSF Tonset ([3]; pH 6, 40° C., d 21) [°C] | DSF Tm ([3]; pH 6, d 0) [°C] | DSF Tonset ([3]; pH 6, d 0) [°C] | DSF Tm ([3]; pH 8, 40° C., d 21) [°C] | DSF Tonset ([3]; pH 8, 40° C., d 21) [°C] | DSF Tm ([3]; pH 8, d 0) [°C] | DSF Tonset ([3]; pH 8, d 0) [°C] | Homogeneity DLS Hydrodynamic radius [4] [nm] | DLS Hydrodynamic radius ([4]; pH 5, 40° C., d 21) [nm] | DLS Hydrodynamic radius ([4]; pH 5, d 0) [nm] | DLS Hydrodynamic radius ([4]; pH 6, 40° C., d 21) [nm] | further results |
| --- | --- | --- | --- | --- | --- | --- | --- | --- | --- | --- | --- | --- | --- | --- | --- | --- | --- | --- | --- | --- | --- |
| 0.428 | 16H7: anti FGFR1c/KLB monoclonal antibody of WO 2011/071783, IgG2 backbone; HC SEQ ID NO: 1, LC SEQ ID NO: 2 [Ab 16H7] | 13 |  |  |  |  |  |  |  |  |  |  |  |  |  |  |  |  |  |  |  |
| 2.54 | Ab0428: IgG1 NNAS; 16H7 VL (N25S, D49S, D50E, D91E, N93E); 16H7 VH (M34V, I83T, D109E); HC SEQ ID NO: 41, LC SEQ ID NO: 48 | 13.8 | 62 | 48 | 59 | 51 | 59 | 50 | 62 | 47 | 62 | 48 | 67 | 56 | 68 | 54 | 5.4 | 5.5 | 5.4 | 5.3 | DLS Hydrodynamic radius ([4]; pH 6, d 0): 5.4 nm; DLS Hydrodynamic radius ([4]; pH 8, 40° C., d 21): 6.1 nm; DLS Hydrodynamic radius ([4]; pH 8, d 0): 5.4 nm; Identity, correct pairing, intact mass, Identity confirmed [5]: Yes; intact mass Identity confirmed ([5]; pH 5, 40° C.): Yes; intact mass Peak intensity post stress ([5]; pH 5, 40° C.): 84%; intact mass Identity confirmed ([5]; pH 6, 40° C.): Yes; intact mass Peak intensity post stress ([5]; pH 6, 40° C.): 87%; intact mass Identity confirmed ([5]; pH 8, 40° C.): Yes; intact mass Peak intensity post stress ([5]; pH 8, 40° C.): 56% |
| 2.2 | Ab0429: IgG1 NNAS; 16H7 VL (N25S, D49S, D50A, D91E, N93E); 16H7 VH (M34V, I83T, D109E); HC SEQ ID NO: 42, LC SEQ ID NO: 49 | 13.9 | 62 | 50 | 60 | 51 | 58 | 51 | 62 | 48 | 62 | 50 | 69 | 55 | 63 | 53 | 5.3 | 5.4 | 5.4 | 5.5 | DLS Hydrodynamic radius ([4]; pH 6, d 0): 5.4 nm; DLS Hydrodynamic radius ([4]; pH 8, 40° C., d 21): 6.3 nm; DLS Hydrodynamic radius ([4]; pH 8, d 0): 5.3 nm; Identity, correct pairing, intact mass, Identity confirmed [5]: Yes; intact mass Identity confirmed ([5]; pH 5, 40° C.): Yes; intact mass Peak intensity post stress ([5]; pH 5, 40° C.): 95%; intact mass Identity confirmed ([5]; pH 6, 40° C.): Yes; intact mass Peak intensity post stress ([5]; pH 6, 40° C.): 83%; intact mass Identity confirmed ([5]; pH 8, 40° C.): Yes; intact mass Peak intensity post stress ([5]; pH 8, 40° C.): 68% |
